Data: paper PMC9482650, “Quantitative fragmentomics allow affinity mapping of interactomes” (Nature Communications, 2022)

T1: HTRA3, P83110
T1 sequence (P83110 354-453, limits assumed, looked up): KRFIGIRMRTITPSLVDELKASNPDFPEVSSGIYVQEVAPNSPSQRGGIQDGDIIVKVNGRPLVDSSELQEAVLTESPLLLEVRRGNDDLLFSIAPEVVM

T2: PARD3B_1, Q8TEW8
T2 sequence (Q8TEW8 196-299, limits assumed, looked up): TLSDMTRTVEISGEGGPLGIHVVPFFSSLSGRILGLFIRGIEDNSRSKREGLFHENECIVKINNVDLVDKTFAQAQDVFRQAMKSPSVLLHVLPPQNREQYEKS

T3: PTPN13_1, Q12923
T3 sequence (Q12923 1088-1188, limits assumed, looked up): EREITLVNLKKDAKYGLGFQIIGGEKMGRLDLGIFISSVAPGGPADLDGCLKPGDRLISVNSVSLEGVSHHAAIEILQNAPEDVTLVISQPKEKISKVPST

T4: LIN7B, Q9HAP6
T4 sequence (Q9HAP6 88-185, limits assumed, looked up): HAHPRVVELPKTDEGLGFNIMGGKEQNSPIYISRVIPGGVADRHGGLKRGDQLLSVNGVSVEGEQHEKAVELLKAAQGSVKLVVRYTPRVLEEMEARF

T5: RHPN1, Q8TCX5
T5 sequence (Q8TCX5 508-602, limits assumed, looked up): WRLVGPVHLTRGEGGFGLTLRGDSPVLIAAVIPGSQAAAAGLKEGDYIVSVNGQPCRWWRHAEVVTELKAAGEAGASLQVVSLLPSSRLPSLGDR

T6: DLG3_3, Q92796
T6 sequence (Q92796 374-475, limits assumed, looked up): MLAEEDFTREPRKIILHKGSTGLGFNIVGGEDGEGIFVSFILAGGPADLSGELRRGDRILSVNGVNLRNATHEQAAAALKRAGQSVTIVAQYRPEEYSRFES

T7: GRIP1_2, Q9Y3R0
T7 sequence (Q9Y3R0 145-248, limits assumed, looked up): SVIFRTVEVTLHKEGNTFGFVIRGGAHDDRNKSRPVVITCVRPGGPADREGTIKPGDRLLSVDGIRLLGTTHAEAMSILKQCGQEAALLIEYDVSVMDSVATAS

T8: GRIP1_4, Q9Y3R0
T8 sequence (Q9Y3R0 467-571, limits assumed, looked up): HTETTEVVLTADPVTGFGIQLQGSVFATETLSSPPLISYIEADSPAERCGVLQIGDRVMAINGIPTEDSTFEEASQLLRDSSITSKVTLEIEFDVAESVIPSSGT

T9: MPDZ_10, O75970
T9 sequence (O75970 1624-1722, limits assumed, looked up): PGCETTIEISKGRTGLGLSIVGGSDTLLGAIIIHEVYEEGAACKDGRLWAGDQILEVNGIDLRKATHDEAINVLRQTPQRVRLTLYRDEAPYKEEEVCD

T10: DFNB31_2, Q9P202
T10 sequence (Q9P202 274-371, limits assumed, looked up): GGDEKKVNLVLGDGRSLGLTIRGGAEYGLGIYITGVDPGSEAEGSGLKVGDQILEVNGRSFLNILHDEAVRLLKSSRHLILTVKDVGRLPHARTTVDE

T11: SYNJ2BP, P57105
T11 sequence (P57105 8-110, limits assumed, looked up): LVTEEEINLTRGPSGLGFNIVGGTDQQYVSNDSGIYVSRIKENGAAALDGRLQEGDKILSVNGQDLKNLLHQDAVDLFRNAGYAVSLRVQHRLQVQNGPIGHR

T12: DLG3_2, Q92796
T12 sequence (Q92796 221-321, limits assumed, looked up): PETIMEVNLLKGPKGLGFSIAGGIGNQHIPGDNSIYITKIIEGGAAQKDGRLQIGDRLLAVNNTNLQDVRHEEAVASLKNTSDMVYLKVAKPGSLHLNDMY

B1: GYPC, P04921 (peptide)
chain: GDSSRKEYFI
B2: FKBP4, Q02790 (peptide)
chain: GSQSQVETEA
B3: CRHR1, P34998 (peptide)
chain: FHSIKQSTAV

Biological target: T1, HTRA3, P83110
Assay: holdup assay
Parameters: key: below the threshold = too weak to quantify, mostly under pKd 3.1 to 4
Settings: plain residues with an end cap or a label only (N-terminal biotin on a linker: ado-ado)

Binder | pKd
B1 | 4.64
B2 | below the threshold
B3 | below the threshold

Biological target: GORASP2, Q9H8Y8
Assay: holdup assay
Parameters: key: below the threshold = too weak to quantify, mostly under pKd 3.1 to 4
Settings: plain residues with an end cap or a label only (N-terminal biotin on a linker: ado-ado)

Binder | pKd
B1 | 4.61
B2 | below the threshold
B3 | below the threshold

Biological target: LAP2, Q96RT1
Sequence (Q96RT1 other isoform, or with tags, fused parts or gaps): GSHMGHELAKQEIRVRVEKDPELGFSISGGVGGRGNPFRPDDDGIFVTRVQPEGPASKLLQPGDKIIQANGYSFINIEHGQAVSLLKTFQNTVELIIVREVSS
Assay: holdup assay
Parameters: key: below the threshold = too weak to quantify, mostly under pKd 3.1 to 4
Settings: plain residues with an end cap or a label only (N-terminal biotin on a linker: ado-ado)

Binder | pKd
B1 | 3.62
B2 | below the threshold
B3 | 3.85

Biological target: NOS1, P29475
Sequence (P29475 9-101): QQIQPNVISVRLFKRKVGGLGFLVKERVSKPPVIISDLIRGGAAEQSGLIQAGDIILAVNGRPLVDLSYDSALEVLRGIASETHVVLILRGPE
Assay: holdup assay
Parameters: key: below the threshold = too weak to quantify, mostly under pKd 3.1 to 4
Settings: plain residues with an end cap or a label only (N-terminal biotin on a linker: ado-ado)

Binder | pKd
B1 | 3.64
B2 | below the threshold
B3 | 4.19

Biological target: T2, PARD3B_1, Q8TEW8
Assay: holdup assay
Parameters: key: below the threshold = too weak to quantify, mostly under pKd 3.1 to 4
Settings: plain residues with an end cap or a label only (N-terminal biotin on a linker: ado-ado)

Binder | pKd
B1 | 4.39
B2 | below the threshold
B3 | below the threshold

Biological target: T3, PTPN13_1, Q12923
Assay: holdup assay
Parameters: key: below the threshold = too weak to quantify, mostly under pKd 3.1 to 4
Settings: plain residues with an end cap or a label only (N-terminal biotin on a linker: ado-ado)

Binder | pKd
B1 | below the threshold
B2 | below the threshold
B3 | below the threshold

Biological target: T4, LIN7B, Q9HAP6
Assay: holdup assay
Parameters: key: below the threshold = too weak to quantify, mostly under pKd 3.1 to 4
Settings: plain residues with an end cap or a label only (N-terminal biotin on a linker: ado-ado)

Binder | pKd
B1 | 3.97
B2 | 3.62
B3 | below the threshold

Biological target: T5, RHPN1, Q8TCX5
Assay: holdup assay
Parameters: key: below the threshold = too weak to quantify, mostly under pKd 3.1 to 4
Settings: plain residues with an end cap or a label only (N-terminal biotin on a linker: ado-ado)

Binder | pKd
B1 | below the threshold
B2 | 3.77
B3 | 3.79

Biological target: TJP2_1, Q9UDY2
Sequence (Q9UDY2 24-128): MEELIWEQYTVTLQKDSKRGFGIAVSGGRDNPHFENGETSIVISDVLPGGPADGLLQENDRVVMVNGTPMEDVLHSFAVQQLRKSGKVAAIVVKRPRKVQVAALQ
Assay: holdup assay
Parameters: key: below the threshold = too weak to quantify, mostly under pKd 3.1 to 4
Settings: plain residues with an end cap or a label only (N-terminal biotin on a linker: ado-ado)

Binder | pKd
B1 | below the threshold
B2 | below the threshold
B3 | 3.6

Biological target: Inadl_9, Q8NI35
Sequence (Q8NI35 1530-1615): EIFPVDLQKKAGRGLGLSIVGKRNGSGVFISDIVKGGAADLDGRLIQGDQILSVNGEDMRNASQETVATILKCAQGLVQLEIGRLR
Assay: holdup assay
Parameters: key: below the threshold = too weak to quantify, mostly under pKd 3.1 to 4
Settings: plain residues with an end cap or a label only (N-terminal biotin on a linker: ado-ado)

Binder | pKd
B1 | 3.51
B2 | below the threshold
B3 | 3.83

Biological target: HTRA1, Q92743
Sequence (Q92743 360-477): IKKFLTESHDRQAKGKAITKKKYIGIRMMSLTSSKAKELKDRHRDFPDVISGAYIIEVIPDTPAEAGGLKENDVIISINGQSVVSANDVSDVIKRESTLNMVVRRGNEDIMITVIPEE
Assay: holdup assay
Parameters: key: below the threshold = too weak to quantify, mostly under pKd 3.1 to 4
Settings: plain residues with an end cap or a label only (N-terminal biotin on a linker: ado-ado)

Binder | pKd
B1 | 4.74
B2 | 3.85
B3 | below the threshold

Biological target: T6, DLG3_3, Q92796
Assay: holdup assay
Parameters: key: below the threshold = too weak to quantify, mostly under pKd 3.1 to 4
Settings: plain residues with an end cap or a label only (N-terminal biotin on a linker: ado-ado)

Binder | pKd
B1 | below the threshold
B2 | below the threshold
B3 | 4.4

Biological target: T7, GRIP1_2, Q9Y3R0
Assay: holdup assay
Parameters: key: below the threshold = too weak to quantify, mostly under pKd 3.1 to 4
Settings: plain residues with an end cap or a label only (N-terminal biotin on a linker: ado-ado)

Binder | pKd
B1 | below the threshold
B2 | below the threshold
B3 | below the threshold

Biological target: T8, GRIP1_4, Q9Y3R0
Assay: holdup assay
Parameters: key: below the threshold = too weak to quantify, mostly under pKd 3.1 to 4
Settings: plain residues with an end cap or a label only (N-terminal biotin on a linker: ado-ado)

Binder | pKd
B1 | below the threshold
B2 | below the threshold
B3 | below the threshold

Biological target: NHERF4_4, Q86UT5
Sequence (Q86UT5 464-550): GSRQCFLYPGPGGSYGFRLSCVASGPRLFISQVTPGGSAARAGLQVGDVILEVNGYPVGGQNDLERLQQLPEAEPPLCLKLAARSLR
Assay: holdup assay
Parameters: key: below the threshold = too weak to quantify, mostly under pKd 3.1 to 4
Settings: plain residues with an end cap or a label only (N-terminal biotin on a linker: ado-ado)

Binder | pKd
B1 | below the threshold
B2 | below the threshold
B3 | 3.88

Biological target: TJP1_3, Q07157
Sequence (Q07157 416-512): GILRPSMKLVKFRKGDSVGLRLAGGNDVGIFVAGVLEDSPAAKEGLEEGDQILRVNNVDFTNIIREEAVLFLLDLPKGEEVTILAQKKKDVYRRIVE
Assay: holdup assay
Parameters: key: below the threshold = too weak to quantify, mostly under pKd 3.1 to 4
Settings: plain residues with an end cap or a label only (N-terminal biotin on a linker: ado-ado)

Binder | pKd
B1 | below the threshold
B2 | below the threshold
B3 | below the threshold

Biological target: T9, MPDZ_10, O75970
Assay: holdup assay
Parameters: key: below the threshold = too weak to quantify, mostly under pKd 3.1 to 4
Settings: plain residues with an end cap or a label only (N-terminal biotin on a linker: ado-ado)

Binder | pKd
B1 | below the threshold
B2 | below the threshold
B3 | below the threshold

Biological target: T10, DFNB31_2, Q9P202
Assay: holdup assay
Parameters: key: below the threshold = too weak to quantify, mostly under pKd 3.1 to 4
Settings: plain residues with an end cap or a label only (N-terminal biotin on a linker: ado-ado)

Binder | pKd
B1 | below the threshold
B2 | below the threshold
B3 | below the threshold

Biological target: T11, SYNJ2BP, P57105
Assay: holdup assay
Parameters: key: below the threshold = too weak to quantify, mostly under pKd 3.1 to 4
Settings: plain residues with an end cap or a label only (N-terminal biotin on a linker: ado-ado)

Binder | pKd
B1 | below the threshold
B2 | below the threshold
B3 | 5.21

Biological target: Inadl_5, Q8NI35
Sequence (Q8NI35 673-780): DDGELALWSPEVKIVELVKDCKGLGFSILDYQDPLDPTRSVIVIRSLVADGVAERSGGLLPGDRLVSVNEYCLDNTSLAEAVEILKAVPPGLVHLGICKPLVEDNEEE
Assay: holdup assay
Parameters: key: below the threshold = too weak to quantify, mostly under pKd 3.1 to 4
Settings: plain residues with an end cap or a label only (N-terminal biotin on a linker: ado-ado)

Binder | pKd
B1 | 5.16
B2 | below the threshold
B3 | below the threshold

Biological target: Inadl_10, Q8NI35
Sequence (Q8NI35 1673-1763): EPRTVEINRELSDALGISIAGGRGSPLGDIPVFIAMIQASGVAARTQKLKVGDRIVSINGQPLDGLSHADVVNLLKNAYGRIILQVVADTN
Assay: holdup assay
Parameters: key: below the threshold = too weak to quantify, mostly under pKd 3.1 to 4
Settings: plain residues with an end cap or a label only (N-terminal biotin on a linker: ado-ado)

Binder | pKd
B1 | below the threshold
B2 | below the threshold
B3 | below the threshold

Biological target: DLG2_2, Q15700
Sequence (Q15700 189-283): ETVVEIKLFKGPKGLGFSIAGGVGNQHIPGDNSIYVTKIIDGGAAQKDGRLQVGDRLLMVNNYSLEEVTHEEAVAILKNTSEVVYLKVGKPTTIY
Assay: holdup assay
Parameters: key: below the threshold = too weak to quantify, mostly under pKd 3.1 to 4
Settings: plain residues with an end cap or a label only (N-terminal biotin on a linker: ado-ado)

Binder | pKd
B1 | below the threshold
B2 | below the threshold
B3 | 4.66

Biological target: DLG4_2, P78352
Sequence (P78352 155-259): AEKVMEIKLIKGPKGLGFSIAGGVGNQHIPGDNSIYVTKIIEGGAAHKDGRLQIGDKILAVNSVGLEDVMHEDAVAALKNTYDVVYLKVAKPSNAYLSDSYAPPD
Assay: holdup assay
Parameters: key: below the threshold = too weak to quantify, mostly under pKd 3.1 to 4
Settings: plain residues with an end cap or a label only (N-terminal biotin on a linker: ado-ado)

Binder | pKd
B1 | 3.61
B2 | 3.59
B3 | 4.93

Biological target: IL16_1, Q14005
Sequence (Q14005 210-306): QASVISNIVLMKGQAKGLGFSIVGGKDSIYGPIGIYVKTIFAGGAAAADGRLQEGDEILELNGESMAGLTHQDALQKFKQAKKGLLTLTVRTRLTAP
Assay: holdup assay
Parameters: key: below the threshold = too weak to quantify, mostly under pKd 3.1 to 4
Settings: plain residues with an end cap or a label only (N-terminal biotin on a linker: ado-ado)

Binder | pKd
B1 | below the threshold
B2 | below the threshold
B3 | below the threshold

Biological target: T12, DLG3_2, Q92796
Assay: holdup assay
Parameters: key: below the threshold = too weak to quantify, mostly under pKd 3.1 to 4
Settings: plain residues with an end cap or a label only (N-terminal biotin on a linker: ado-ado)

Binder | pKd
B1 | 4.19
B2 | 4.2
B3 | 4.61
